The results in this text go back to US20020031818A1, “Modification of Mdm2 activity” (priority 2000, published 2002).

In one experiment the target is T1, GST-Mdm2 (Homo sapiens, UniProt Q00987).
T1 construct: made in house
Description: In vitro conjugation of SUMO-1 to GST-Mdm2 (in vitro sumoylation). In kind it is biochemical.

The target in the next experiment is Mdm2 (Homo sapiens, UniProt Q00987). In words: Mdm2 sumoylation in EJ cells. The arrangement: expressed in transfected cells; host or cells: EJ mouse fibroblasts (p19ARF null). The note with it: EJ cells (lack p19ARF), Flag-Mdm2 and p19ARF constructs 2 μg. In kind it is cell-based, mouse. Here is the method: FIG. 13A-13E. A. Bacterially expressed and purified Mdm2 (1 μg) was incubated with ^32P-labeled Sumo-1, purified Aos1/Uba2 and Ubc9 (0.5 μg) for 60 min at 37° C. in conjugation buffer. For indicated time-periods in vitro translated wt or mutant p19^ARF ([…]) was added to the sumoylation reactions. Upper panel depicts the amount of Sumoylated Mdm2, lower panel reveal the level of Mdm2 and Sumo-Mdm2 in Coomassie blue gel. B. Bacterially expressed and purified Mdm2 (1 μg) was incubated with in vitro-translated ^35S-Sumo, purified Aos1/Uba2 and Ubc9 (0.5 μg) for 60 min at 37° C. in conjugation buffer in the presence of the increasing amounts of bacculovirus-expressed p19^ARF (0, 0.1, 0.5, 1 μg; lanes 1-4 respectively). Bead-bound complexes were washed before being denatured in 3× Sample Buffer. Proteins were separated on 8% SDS-PAGE. Gel was stained with Coomassie blue to verify equal Mdm2 input (lower panel), dried and exposed to X-ray film, which depicts SUMO-1 conjugation to Mdm2 in the presence of the indicated p19 forms (upper panel). […] (Left) Immunoprecipitated Mdm2 was detected using monoclonal Mdm2 antibodies (2A10, left). […] SUMO-conjugation to Mdm2 was detected using monoclonal antibodies to SUMO-1 (top). […]
Mdm2, sequence (Q00987 whole entry): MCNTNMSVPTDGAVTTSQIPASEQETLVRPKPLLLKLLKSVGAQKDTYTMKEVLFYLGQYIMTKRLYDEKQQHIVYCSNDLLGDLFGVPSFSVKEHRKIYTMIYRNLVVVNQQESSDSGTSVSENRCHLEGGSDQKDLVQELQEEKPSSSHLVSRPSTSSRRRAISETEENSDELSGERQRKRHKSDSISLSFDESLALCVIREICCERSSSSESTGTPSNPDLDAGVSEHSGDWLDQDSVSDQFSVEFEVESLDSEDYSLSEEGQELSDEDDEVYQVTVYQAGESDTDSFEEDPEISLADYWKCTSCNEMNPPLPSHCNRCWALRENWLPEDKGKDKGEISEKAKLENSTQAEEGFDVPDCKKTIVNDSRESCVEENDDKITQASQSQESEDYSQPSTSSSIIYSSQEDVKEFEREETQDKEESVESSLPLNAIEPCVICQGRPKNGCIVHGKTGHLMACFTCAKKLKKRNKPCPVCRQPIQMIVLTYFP

T1 sequence (Q00987 whole entry): as above
Description for GST-Mdm2: A. Time dependent Mdm2 sumoylation in vitro. Bacterially expressed and purified GST-Mdm2 was subjected to in vitro sumoylation reaction in the presence of E1, Ubc9, and ^35S-Sumos. Reaction was terminated after 10,30,50 or 60 minutes, Proteins were separated on 8% gel, Commassie stained, dryed and exposed overnight (upper panel). Lower panel depicts Commassie blue staining of Mdm2 forms. […] (Upper part) The specific Ubc-9-binding site peptide or a nonspecific peptide was added to the reaction for the indicated time periods. […] The lower panel depicts a Coomassie staining visualizing relative amounts of sumoylated and non-sumoylated forms of purified GST-Mdm2. C. The Mdm2 sumoylation assay was carried out in the presence of Ubc-9-binding site peptide (mu9bs) or a nonspecific peptide (mu9bs) which were added to the reaction at the indicated concentrations. […] Mdm2/p53 double null cells were transfected with Flag-tagged Mdm2, HA-tagged Sumo-1 and increasing amounts of the specific or nonspecific Ubc-9-peptides, respectively. Cells were harvested 36 h later and 500 μg of protein was immunoprecipitated using Mdm2 antibodies (2A10). Immunoprecipitated Mdm2 levels were detected using 2A10 antibodies (top). The same membrane was stripped and reprobed using monoclonal antibodies against Sumo-1 (Zymed, middle) to visualize the level of Sumo-1 conjugation to Mdm2 after Ubc-9-peptide expression.
A. Bacterially expressed and purified Mdm2 (1 μg) was incubated with ^32P-labeled Sumo-1, purified Aos1/Uba2 and Ubc9 (0.5 μg) for 60 min at 37° C. in conjugation buffer. For indicated time-periods in vitro translated wt or mutant p19^ARF (0.5 mg) was added to the sumoylation reactions. Upper panel depicts the amount of Sumoylated Mdm2, lower panel reveal the level of Mdm2 and Sumo-Mdm2 in Coomassie blue gel. B. Bacterially expressed and purified Mdm2 (1 μg) was incubated with in vitro-translated ^35S-Sumo, purified Aos1/Uba2 and Ubc9 (0.5 μg) for 60 min at 37° C. in conjugation buffer in the presence of the increasing amounts of bacculovirus-expressed p19^ARF (0, 0.1, 0.5, 1 μg; lanes 1-4 respectively). Bead-bound complexes were washed before being denatured in 3× Sample Buffer. Proteins were separated on 8% SDS-PAGE. Gel was stained with Coomassie blue to verify equal Mdm2 input (lower panel), dried and exposed to X-ray film, which depicts SUMO-1 conjugation to Mdm2 in the presence of the indicated p19 forms (upper panel). […] Double-null cells were transfected with Flag-tagged Mdm2 (1.5 μg), HA-tagged SUMO (1.5 μg) and p19 wt (1.5 μg). Cells were treated with MG132 (40 mM) for 5 h prior to protein preparation. […] (Left) Immunoprecipitated Mdm2 was detected using monoclonal Mdm2 antibodies (2A10, left). […]

B1: p19^ARF: Mdm2-regulating protein; in vitro translated, bacculovirus-expressed or transfected (protein)
chain: MGRRFLVTVRIQRAGRPLQERVFLVKFVRSRRPRTASCALAFVNMLLRLERILRRGPHRNPGPGDDDGQRSRSSSSAQLRCRFELRGPHYLLPPGARRSAGRLPGHAGGAARVRGSAGCARCLGSPAARLGPRAGTSRHRAIFAFRWVLFVFRWVVFVYRWERRPDRRA
On to B1, for which the “in vitro sumoylation of Mdm2 with p19ARF purified from insect cells” value in the experiment with GST-Mdm2 (0, 0.1, 0.5, 1 μg bacculovirus-expressed p19ARF) was “inhibited in a dose-dependent manner”. Moreover, in the experiment with GST-Mdm2 (in vitro-translated wt or mutant p19ARF), the “GST-Mdm2 sumoylation in vitro with in vitro-translated p19 forms” value is given as “efficient inhibition of GST-Mdm2 sumoylation in vitro”. Besides, the “Mdm2 sumoylation in EJ cells upon co-expression” value with Mdm2 is “inhibition of Mdm2 sumoylation”.
